Assay results taken from patent US20140335107A1 (published 2014).
Positions count from the first letter of the chain named. Names may count otherwise.

B1: huMA79b graft variant with HVR-L2 of SEQ ID NO: 28 (Fab, name in Kabat numbering, V domains shown)
VH: EVQLVESGGGLVQPGGSLRLSCAASGYTFSSYWIEWVRQAPGKGLEWVGEILPGGGDTNYNEIFKGRFTISADTSKNTAYLQMNSLRAEDTAVYYCTRRVPVYFDYWGQGTLVTVSS
VL: DIQMTQSPSSLSASVGDRVTITCKASQSVDYDGDSFLNWYQQKPGKAPKLLIYAARKLASGVPSRFSGSGSGTDFTLTISSLQPEDFATYYCQQSNEDPLTFGQGTKVEIKR
notes: Fab on phage
B2: huMA79b graft variant with HVR-H1 of SEQ ID NO: 57 (huMA79b H1-6) (Fab, V domains shown)
VH: B1 VH with T28P, S30T, S31R, E35N
VL: DIQMTQSPSSLSASVGDRVTITCKASQSVDYDGDSFLNWYQQKPGKAPKLLIYAASNLESGVPSRFSGSGSGTDFTLTISSLQPEDFATYYCQQSNEDPLTFGQGTKVEIK
notes: Fab on phage; also called H1-6 mutation
B3: huMA79b graft variant with HVR-L2 of SEQ ID NO: 31 (Fab, name in Kabat numbering, V domains shown)
VH: B1 VH
VL: B1 VL with A59G
notes: Fab on phage; also called L2-38 mutation
B4: huMA79b graft variant with HVR-L3 of SEQ ID NO: 21 (Fab, name in Kabat numbering, V domains shown)
VH: B1 VH
VL: B1 VL with R56S, K57N, A59E, E97K
notes: Fab on phage
B5: huMA79b graft variant with HVR-L2 of SEQ ID NO: 36 (Fab, name in Kabat numbering, V domains shown)
VH: B1 VH
VL: B1 VL with R56S, A59G
notes: Fab on phage
B6: huMA79b graft variant with HVR-L2 of SEQ ID NO: 33 (Fab, name in Kabat numbering, V domains shown)
VH: B1 VH
VL: B1 VL with A55S, K57Y, A59S, S60R
notes: Fab on phage
B7: huMA79b graft variant with HVR-L2 of SEQ ID NO: 34 (Fab, name in Kabat numbering, V domains shown)
VH: B1 VH
VL: B1 VL with A55G, R56S, A59L, S60R
notes: Fab on phage
B8: huMA79b graft variant with HVR-L2 of SEQ ID NO: 35 (Fab, name in Kabat numbering, V domains shown)
VH: B1 VH
VL: B1 VL with R56S, K57N, L58R, A59K
notes: Fab on phage
B9: huMA79b graft variant with HVR-L3 of SEQ ID NO: 20 (Fab, name in Kabat numbering, V domains shown)
VH: B1 VH
VL: B1 VL with R56S, K57N, A59E, E97S
notes: Fab on phage; also called SPL-5 mutation
B10: huMA79b graft variant with HVR-L2 of SEQ ID NO: 29 (Fab, name in Kabat numbering, V domains shown)
VH: B1 VH
VL: B1 VL with R56G, K57I, S60R
notes: Fab on phage
B11: huMA79b graft variant with HVR-L2 of SEQ ID NO: 30 (Fab, name in Kabat numbering, V domains shown)
VH: B1 VH
VL: B1 VL with A59R
notes: Fab on phage
B12: huMA79b graft variant with HVR-L2 of SEQ ID NO: 32 (Fab, name in Kabat numbering, V domains shown)
VH: B1 VH
VL: B1 VL with K57H, A59K, S60R
notes: Fab on phage
B13: MA79b-grafted humanized antibody variant 18 (huMA79b.v18) (antibody, human IgG1, kappa)
light: DIQLTQSPSSLSASVGDRVTITCKASQSVDYDGDSFLNWYQQKPGKAPKLLIYAASNLESGVPSRFSGSGSGTDFTLTISSLQPEDFATYYCQQSNEDPLTFGQGTKVEIKRTVAAPSVFIFPPSDEQLKSGTASVVCLLNNFYPREAKVQWKVDNALQSGNSQESVTEQDSKDSTYSLSSTLTLSKADYEKHKVYACEVTHQGLSSPVTKSFNRGEC
heavy: not shown
notes: IgG
B14: thio huMA79b.v28-HC(A118C)-BMPEO-DM1 (antibody, human IgG1, kappa)
light: B13 light with D32E
heavy: not shown
modifications: BMPEO-DM1 on the engineered Cys at EU position 118 (sequential position 118; Kabat position 114)
notes: TDC
B15: thio huMA79b.v28-HC(A118C)-MC-MMAF (antibody, human IgG1, kappa)
light: B13 light with D32E
heavy: not shown
modifications: MC-MMAF on the engineered Cys at EU position 118 (sequential position 118; Kabat position 114)
notes: TDC
B16: thio huMA79b.v28-HC(A118C)-MCvcPAB-MMAE (antibody, human IgG1, kappa)
light: B13 light with D32E
heavy: not shown
modifications: MC-val-cit-PAB-MMAE on the engineered Cys at EU position 118 (sequential position 118; Kabat position 114)
notes: TDC; also called thio huMA79b.v28-HC(A118C)-MC-val-cit-PAB-MMAE
B17: thio huMA79b.v18-HC(A118C)-MCvcPAB-MMAE (antibody, human IgG1, kappa)
light: B13 light
heavy: not shown
modifications: MC-val-cit-PAB-MMAE on the engineered Cys at EU position 118 (sequential position 118; Kabat position 114)
notes: TDC
B18: thio huMA79b.v18-HC(A118C)-MC-MMAF (antibody, human IgG1, kappa)
light: B13 light
heavy: not shown
modifications: MC-MMAF on the engineered Cys at EU position 118 (sequential position 118; Kabat position 114)
notes: TDC
B19: thio huMA79b.v18-HC(A118C)-BMPEO-DM1 (antibody, human IgG1, kappa)
light: B13 light
heavy: not shown
modifications: BMPEO-DM1 on the engineered Cys at EU position 118 (sequential position 118; Kabat position 114)
notes: TDC; also called huMA79b.v18-HC(A118C) thioMAb-BMPEO-DM1
B20: MA79b-grafted humanized antibody variant 28 (huMA79b.v28) (antibody, human IgG1, kappa)
light: B13 light with D32E
heavy: not shown
notes: IgG
B21: MA79b-grafted humanized antibody variant 32 (huMA79b.v32) (antibody, human IgG1, kappa, V domains shown)
VH: B1 VH with V48I, F68A, I70F, V102I, Y103R, F104L
VL: B1 VL with M4L, D32S, L51F, R56S, K57N, A59E
notes: IgG

Tests used:
[1] = target: T1, extracellular domain of human CD79b (huCD79becd) (human, UniProt P40259 29-159); test: phage selection, Fab on phage
T1 construct: expressed in CHO cells
T1 sequence: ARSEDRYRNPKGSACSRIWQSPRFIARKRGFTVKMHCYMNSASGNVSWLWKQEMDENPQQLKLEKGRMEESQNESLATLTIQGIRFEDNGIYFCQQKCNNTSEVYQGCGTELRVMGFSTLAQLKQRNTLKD
Protocol: For phage selection, the extracellular domain of CD79b (huCD79becd) (2 μg/ml) was immobilized in PBS on MaxiSorp microtiter plates (Nunc) overnight at 4° C. Plates were blocked for at least 1 h using Casein Blocker (Pierce). Phage were harvested from the culture supernatant and suspended in PBS containing 0.5% BSA and 0.05% Tween 20 (PBSBT). Following addition of the phage library and phage selection for 2 h, microtiter wells were washed extensively with PBS containing 0.05% Tween 20 (PBST) to remove unbound phage and bound phage were eluted by incubating the wells with 100 mM HCl for 30 min. Selection stringency may be increased during successive rounds of selection by increasing the number of washes with PBST or by incubating with soluble huCD79becd for increasing time periods prior to elution.

[2] = target: T1, extracellular domain of human CD79b …; test: Biacore (SPR), IgG
Protocol: Binding of Fab and IgG variants of MA79b, the MA79b-grafted “humanized” antibody or MA79b-grafted “humanized” antibody variants to immobilized huCD79becd or huCD79b-Fc or the 16 amino acid peptide containing the epitope for MA79b was measured by surface plasma resonance. Affinity determinations were performed by surface plasmon resonance using a BIAcore™-2000. The antigen, huCD79becd or huCD79b-Fc was immobilized (approximately 50-200 RU) in 10 mM sodium acetate pH 4.8 on a CM5 sensor chip. Due to a large avidity effect, affinity measurements were sensitive to the amount of huCD79becd immobilized. For this reason, affinities, determined for samples run on different days, were normalized to MA79b that was run along side as a standard. In experiments that measured binding to the 16 amino acid peptide containing the epitope for MA79b ([…]) (SEQ ID NO: 16), the biotinylated peptide was captured (approximately 20 RU) on a streptavidin coated sensor chip. Purified MA79b-grafted “humanized” antibody variant (as Fab or IgG) (a 2-fold serial dilution of 0.5 to 1000 nM in PBST) was injected at a flow rate of 30 μL/min. Each sample was analyzed with 4-minute association and 10-minute disassociation. After each injection the chip was regenerated using 10 mM Glycine pH 1.7. […]

human CD79b [3] = target: T2, human CD79b (human, UniProt P40259 29-229); test: FACS on BJAB-luciferase cells
T2 construct: endogenous CD79b on B-cell lines (BJAB, BJAB-luciferase, DoHH-2); also called PRO36249; CD79b expressed on the surface of BJAB-luciferase cells
T2 sequence: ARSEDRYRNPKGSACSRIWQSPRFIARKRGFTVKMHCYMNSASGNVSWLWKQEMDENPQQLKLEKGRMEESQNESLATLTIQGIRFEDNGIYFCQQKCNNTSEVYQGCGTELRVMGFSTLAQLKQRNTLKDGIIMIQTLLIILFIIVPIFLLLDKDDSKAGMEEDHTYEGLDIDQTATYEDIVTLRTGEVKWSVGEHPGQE
Protocol: The binding affinity of thio huMA79b.v18, thio huMA79b.v28 drug conjugates and thio MA79b drug conjugates to CD79b expressed on BJAB-luciferase cells was determined by FACS analysis. Further, the binding affinity of thio anti-cynoCD79b(ch10D10) drug conjugates to CD79b expressed on BJAB cells expressing cynoCD79b was determined by FACS analysis.
Briefly, approximately 1×10⁶ cells in 100 μl were contacted with varying amounts (1.0 μg, 01. μg or 0.01 μg of Ab per million cells of BJAB-luciferase cells or BJAB cells expressing cynoCD79b (for anti-cynoCD79b thioMAbs)) of one of the following anti-CD79b thioMAb drug conjugates or naked (unconjugated Ab as a control): (1) thio MA79b-LC(V205C)-MC-MMAF or (2) thio MA79b-HC(A118C)-MC-MMAF (FIGS. 29A-B, respectively); (3) thio huMA79b.v18-HC(A118C)-MC-MMAF, (4) thio huMA79b.v18-HC(A118C)-MC-vcPAB-MMAE or (5) thio huMA79b.v18-HC(A118C)-BMPEO-DM1 (FIGS. 30B-D, respectively); (6) thio huMA79b.v28-HC(A118C)-MCvcPAB-MMAE, (7) thio huMA79b.v28-HC(A118C)-BMPEO-DM1, or (8) thio huMA79b.v28-HC(A118C)-MC-MMAF (see FIGS. 31B-31D, respectively); or (9) thio anti-cynoCDb79(ch10D10)-HC(A118C)-MCvcPAB-MMAE, (10) thio anti-cynoCD79b(ch10D10)-HC(A118C)-BMPEO-DM1 or (11) thio anti-cynoCD79b(ch10D10)-HC(A118C)-MC-MMAF (see FIGS. 32B-32D, respectively). PE conjugated mouse anti-human Ig was used as the secondary detecting antibody (BD Cat#555787).

human CD79b [4] = target: T2, human CD79b; test: Scatchard analysis on BJAB cells stably expressing cynomolgus CD79b and endogenous human CD79b

| Binder | binding result [1] | also measured |
| --- | --- | --- |
| B1 | binds |  |
| B2 | binds |  |
| B3 | binds |  |
| B4 | binds |  |
| B5 | binds |  |
| B6 | binds |  |
| B7 | binds |  |
| B8 | binds |  |
| B9 | binds |  |
| B10 | binds |  |
| B11 | binds |  |
| B12 | binds |  |
| B13 |  | fold improvement in dimeric binding compared to variant 17 [2]: 2 fold |
| B14 |  | binding result (human CD79b [3]): binds |
| B15 |  | binding result (human CD79b [3]): binds |
| B16 |  | binding result (human CD79b [3]): binds |
| B17 |  | binding result (human CD79b [3]): binds |
| B18 |  | binding result (human CD79b [3]): binds |
| B19 |  | binding result (human CD79b [3]): binds |
| B20 |  | Kd (human CD79b [4]): 0.44 nM |
| B21 |  | Kd (human CD79b [4]): 0.24 nM |
